The values below come from patent US20030092091A1 (GlaxoSmithKline, published 2003).

Assay [1] has as its target SAF-2 (Siglec-8 / Siglec-8L) on the cell surface (human) (UniProt Q9NYZ4). The experiment in a line: cell-based or functional assay.
Assay [2] deals with T1, SAF-2 polypeptide (extracellular domain of sialoadhesin factor-2, released from SAF-2/Fc by Factor Xa … (human, UniProt Q9NYZ4 17-363)).
T1 construct: extracellular domain; The BIAcore analyte is printed only as 'SAF-2 (diluted in HBS buffer)'; Residues left over from the cleavage site are not described; also called Siglec-8
The assay can be described thus: BIAcore SPR. The mAb was captured on a rabbit anti-mouse IgG Fc surface and SAF-2 was injected as analyte. KD was calculated from the rates. As for the experimental part:
(§1) Kinetic data was evaluated using relationships described previously (Karlsson, et al. (1991) J. Immunol. Meth. 145:229). The mAb (diluted in HBS buffer, 10 mM HEPES, 150 mM NaCl, 0.01% Tween-20, pH 7.4) was injected over a rabbit anti-mouse IgG Fe surface, followed by buffer flow, and the RU was recorded. SAF-2 (diluted in HBS buffer) was then injected for 180 seconds, followed by a buffer flow for 300 seconds, and the RU was recorded. The sensor chip surface was regenerated by an injection of 0.1 M phosphoric acid. The on-rates (Kₐ) and off-rates (Kd) of binding were calculated using BIAcore (Uppswala, Sweden) software.

Assay [3] has as its target T1, SAF-2 polypeptide (extracellular domain …). The assay can be described thus: BIAcore SPR. The mAb was captured on a rabbit anti-mouse IgG Fc surface and SAF-2 was injected as analyte. As for the experimental part:
as §1
On the technique in general: SPR reads the build-up and loss of mass on a sensor chip optically.

Positions count from the first letter of the chain named. Bounds are passed on as bounds.

T1 sequence (Q9NYZ4 17-363): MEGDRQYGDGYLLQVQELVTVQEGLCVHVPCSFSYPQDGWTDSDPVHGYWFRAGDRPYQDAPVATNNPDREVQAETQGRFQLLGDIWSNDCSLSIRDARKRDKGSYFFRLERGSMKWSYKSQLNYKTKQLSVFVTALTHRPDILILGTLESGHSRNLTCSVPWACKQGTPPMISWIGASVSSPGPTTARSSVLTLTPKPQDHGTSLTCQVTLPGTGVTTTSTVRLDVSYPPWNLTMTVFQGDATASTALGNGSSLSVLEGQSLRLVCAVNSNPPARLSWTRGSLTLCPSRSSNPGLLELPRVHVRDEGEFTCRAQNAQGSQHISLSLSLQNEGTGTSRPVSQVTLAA
SAF-2 (Siglec-8 / Siglec-8L) on the cell surface (human), sequence (Q9NYZ4 17-499): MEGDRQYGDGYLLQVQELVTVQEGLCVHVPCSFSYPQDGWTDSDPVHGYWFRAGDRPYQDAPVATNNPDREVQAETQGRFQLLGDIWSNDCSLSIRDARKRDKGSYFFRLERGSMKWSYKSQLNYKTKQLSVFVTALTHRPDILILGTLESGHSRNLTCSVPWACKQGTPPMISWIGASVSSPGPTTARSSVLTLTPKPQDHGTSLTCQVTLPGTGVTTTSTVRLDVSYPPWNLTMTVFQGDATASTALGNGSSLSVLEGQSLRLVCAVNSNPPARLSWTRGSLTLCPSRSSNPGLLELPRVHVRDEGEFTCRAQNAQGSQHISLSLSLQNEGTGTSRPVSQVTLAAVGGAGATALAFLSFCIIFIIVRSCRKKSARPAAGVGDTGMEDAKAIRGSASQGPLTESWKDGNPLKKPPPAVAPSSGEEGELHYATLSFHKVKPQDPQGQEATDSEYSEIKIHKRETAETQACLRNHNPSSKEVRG

B1: 2E2 mAb (antibody, from another filing, V domains shown)
VH: VQLKRASGPGLVAPSQSLSITCTVSGFSLTIYGAHWVRQPPGKGLEWLGVIWAGGSTNYNSALMSRLSISKDNSKSQVFLKINSLQTDDTALYYCARDGSSPYYYSMEYWGQGTSVTVSS
VL: QIILTQSPAIMSASPGEKVSITCSATSSVSYMHWFQQKPGTSPKLWIYSTSNLASGVPVRFSGSGSGTSYSLTISRMEAEDAATYYCQQRSSYPFTFGSGTKLEIKA
On to B1, for which, in assay [1], the apoptosis (annexin-V) of IL-5-primed eosinophils, 2E2 mAb alone came out at 69%; the apoptosis (annexin-V) of unprimed eosinophils, 2E2 and secondary Ab is 72%; the eosinophil death at 48-72 h of culture (erythrosin-B dye exclusion), 2E2 plus secondary polyclonal Ab is > 90%; the eosinophil death at 24 h of culture (erythrosin-B dye exclusion), 2E2 plus secondary polyclonal Ab is 68%.

B2: monoclonal antibody 2C4 (antibody, IgG1, V domains shown)
VH: QVQLKESGPGLVAPSQSLSITCTVSGFSLIYGAHWVRQPPGKGLEWLGVIWAGGSTNYNSALMSRLSISKDNSKSQVFLKINSLQTDDTALYYCARDGSSPYYYSMEYWGQGTSVTVSS
VL: B1 VL with Q1E, A107R
notes: also called mAb 2C4
As for B2, the Kd (commonly the free concentration of one partner at which half of the binding sites on the other are occupied at equilibrium, for simple one-to-one binding) in assay [2] is 0.2 nM. In assay [3], the koff (as a rule, a measure of how fast the partners let go of each other) was found to be 4.3e-05 s⁻¹ and the kon (commonly the second-order rate constant of association) amounted to 220000 M⁻¹ s⁻¹.
